The results in this text go back to US20100239676A1, “Stable Aerosolizable Suspensions of Proteins in Ethanol” (priority 2000, published 2010).

The data set is described as follows: Stabilization of insulin suspension in 100% ethanol, activity retained by reversed phase HPLC. The class given is physicochemical. The settings on record: pH 7.4. On the procedure: The conical tubes were then sealed with punctured parafilm, and frozen overnight at ˜−15° C. to −20° C. […] This process was started two or three days prior to the start of the experiment. […] For each sample, there were four (4) time-points prepared. […] The diluted samples were then analyzed by reversed phase HPLC method using standard techniques known to the art. The other time-points were sealed with parafilm. Four (4) different conditions were tested: (i) & (ii) samples were maintained at 37° C. with and without shaking; (iii) samples were maintained at 40° C. with shaking; and (iv) samples were maintained at room temperature with no shaking. A Labline environmental incubator/shaker was used at 37° C. and at 40° C. while shaking at 220 rpm. […] Inversion was used to gently mix.
Percent activity retained was determined by high-performance liquid chromatography (HPLC).

Consider “Insulin: Lyophilized human insulin, supplied from Roche Biochemical Co., suspended in 200 proof ethanol”, for which the “Activity Retained (%)” value is 90% (2.0 months, 20 °C, shaking NA); 55% (2.0 months, 40 °C, shaking 220 rpm); 93% (2.5 months, 37 °C, shaking NA).
